Laboratory results as given in US20250042956A1.
Values belong to the binder of their own block, whether it stands above or below them.

Columns and labels:
[1] = molecular target: T1, AT3G49850.1 TRB3 (Arabidopsis thaliana) (UniProt Q9M2X3); experiment: IP-MS rep 1
T1 sequence: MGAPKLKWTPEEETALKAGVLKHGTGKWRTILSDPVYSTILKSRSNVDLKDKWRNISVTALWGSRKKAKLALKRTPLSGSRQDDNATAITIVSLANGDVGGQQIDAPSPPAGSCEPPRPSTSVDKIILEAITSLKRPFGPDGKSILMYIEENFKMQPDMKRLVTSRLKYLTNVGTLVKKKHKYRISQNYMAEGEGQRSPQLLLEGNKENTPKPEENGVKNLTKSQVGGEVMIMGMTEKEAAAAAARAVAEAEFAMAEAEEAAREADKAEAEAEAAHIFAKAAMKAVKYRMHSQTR

[2] = molecular target: T1, AT3G49850.1 TRB3 (Arabidopsis thaliana); experiment: IP-MS rep 2
[3] = molecular target: T1, AT3G49850.1 TRB3 (Arabidopsis thaliana); experiment: X-link IP-MS
[4] = molecular target: T2, AT5G17690.1 LHP1 (Arabidopsis thaliana) (UniProt Q946J8); experiment: IP-MS rep 1
T2 sequence: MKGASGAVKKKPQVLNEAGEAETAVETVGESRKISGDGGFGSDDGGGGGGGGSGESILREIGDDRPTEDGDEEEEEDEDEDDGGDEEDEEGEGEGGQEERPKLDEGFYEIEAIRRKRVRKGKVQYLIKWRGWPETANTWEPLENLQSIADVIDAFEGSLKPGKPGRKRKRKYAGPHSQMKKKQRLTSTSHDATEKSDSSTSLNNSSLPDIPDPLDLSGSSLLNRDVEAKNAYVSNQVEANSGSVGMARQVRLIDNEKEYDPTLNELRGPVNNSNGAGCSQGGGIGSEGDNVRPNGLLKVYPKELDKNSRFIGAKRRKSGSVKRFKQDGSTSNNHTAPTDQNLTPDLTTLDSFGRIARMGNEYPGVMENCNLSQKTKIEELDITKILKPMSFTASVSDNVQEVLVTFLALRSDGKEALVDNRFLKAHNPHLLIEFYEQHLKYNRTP

[5] = molecular target: T2, AT5G17690.1 LHP1 (Arabidopsis thaliana); experiment: IP-MS rep 2
[6] = molecular target: T3, AT5G67580.1 TRB2 (Arabidopsis thaliana) (UniProt Q9FJW5); experiment: IP-MS rep 1
T3 sequence: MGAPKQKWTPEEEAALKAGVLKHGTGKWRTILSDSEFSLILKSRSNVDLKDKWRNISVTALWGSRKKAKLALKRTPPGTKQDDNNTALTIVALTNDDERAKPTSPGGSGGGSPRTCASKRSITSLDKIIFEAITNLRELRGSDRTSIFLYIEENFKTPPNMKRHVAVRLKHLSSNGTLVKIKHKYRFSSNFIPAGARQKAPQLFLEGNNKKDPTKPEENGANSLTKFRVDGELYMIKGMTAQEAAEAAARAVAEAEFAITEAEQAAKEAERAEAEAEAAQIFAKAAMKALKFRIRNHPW

[7] = molecular target: T3, AT5G67580.1 TRB2 (Arabidopsis thaliana); experiment: IP-MS rep 2
[8] = molecular target: T3, AT5G67580.1 TRB2 (Arabidopsis thaliana); experiment: X-link IP-MS
[9] = molecular target: AT4G20400.1 JMJ14 (Arabidopsis thaliana), Q8GUI6; experiment: X-link IP-MS; details: remark: other sources report otherwise
AT4G20400.1 JMJ14 (Arabidopsis thaliana), Q8GUI6, sequence (Q8GUI6 whole entry): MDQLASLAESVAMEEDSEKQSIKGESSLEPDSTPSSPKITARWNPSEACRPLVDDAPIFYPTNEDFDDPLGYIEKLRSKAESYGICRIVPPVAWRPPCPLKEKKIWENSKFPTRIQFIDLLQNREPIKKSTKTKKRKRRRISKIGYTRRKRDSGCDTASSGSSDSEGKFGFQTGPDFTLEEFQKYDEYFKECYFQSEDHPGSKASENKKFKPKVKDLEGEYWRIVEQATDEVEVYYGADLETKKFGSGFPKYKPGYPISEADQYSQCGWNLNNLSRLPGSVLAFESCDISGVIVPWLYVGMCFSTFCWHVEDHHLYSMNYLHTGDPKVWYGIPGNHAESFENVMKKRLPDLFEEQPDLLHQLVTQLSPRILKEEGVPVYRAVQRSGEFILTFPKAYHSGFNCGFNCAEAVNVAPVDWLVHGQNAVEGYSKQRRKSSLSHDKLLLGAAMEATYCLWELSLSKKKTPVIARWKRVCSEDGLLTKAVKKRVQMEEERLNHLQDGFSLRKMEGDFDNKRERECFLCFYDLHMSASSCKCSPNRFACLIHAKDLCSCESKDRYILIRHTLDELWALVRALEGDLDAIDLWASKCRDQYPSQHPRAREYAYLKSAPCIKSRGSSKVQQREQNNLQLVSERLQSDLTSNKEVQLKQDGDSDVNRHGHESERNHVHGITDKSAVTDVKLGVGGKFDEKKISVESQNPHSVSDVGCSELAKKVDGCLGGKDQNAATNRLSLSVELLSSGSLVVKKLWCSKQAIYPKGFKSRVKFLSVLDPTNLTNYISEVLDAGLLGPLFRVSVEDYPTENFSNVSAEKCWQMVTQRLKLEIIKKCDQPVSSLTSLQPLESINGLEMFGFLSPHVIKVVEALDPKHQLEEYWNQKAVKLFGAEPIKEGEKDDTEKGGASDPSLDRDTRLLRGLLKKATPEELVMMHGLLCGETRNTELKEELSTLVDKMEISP

[10] = molecular target: AT4G20400.1 JMJ14 (Arabidopsis thaliana), Q8GUI6; experiment: IP-MS rep 2; details: remark: other sources report otherwise
[11] = molecular target: AT4G20400.1 JMJ14 (Arabidopsis thaliana), Q8GUI6; experiment: IP-MS rep 1; details: remark: other sources report otherwise
[12] = molecular target: T4, AT5G17690.1 LHP1 (Arabidopsis thaliana), Q946J8; experiment: X-link IP-MS; details: remark: other sources report otherwise
T4 chain: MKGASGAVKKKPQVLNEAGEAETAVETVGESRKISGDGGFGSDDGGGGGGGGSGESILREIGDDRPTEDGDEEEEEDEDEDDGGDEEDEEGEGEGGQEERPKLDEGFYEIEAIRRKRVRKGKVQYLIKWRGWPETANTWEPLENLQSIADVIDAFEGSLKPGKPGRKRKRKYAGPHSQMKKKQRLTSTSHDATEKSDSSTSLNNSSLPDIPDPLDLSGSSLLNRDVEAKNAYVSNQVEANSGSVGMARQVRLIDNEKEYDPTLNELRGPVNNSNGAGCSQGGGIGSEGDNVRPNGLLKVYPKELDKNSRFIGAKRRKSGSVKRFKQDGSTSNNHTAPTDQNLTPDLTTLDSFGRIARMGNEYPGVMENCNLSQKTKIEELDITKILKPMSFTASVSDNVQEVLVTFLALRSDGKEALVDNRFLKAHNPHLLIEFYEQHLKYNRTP

[13] = molecular target: T4, AT5G17690.1 LHP1 (Arabidopsis …); experiment: IP-MS rep 2; details: remark: other sources report otherwise
[14] = molecular target: T4, AT5G17690.1 LHP1 (Arabidopsis …); experiment: IP-MS rep 1; details: remark: other sources report otherwise
[15] = molecular target: T5, AT4G02020.1 SWN (Arabidopsis thaliana) (UniProt Q9ZSM8); experiment: IP-MS rep 1
T5 sequence (looked up): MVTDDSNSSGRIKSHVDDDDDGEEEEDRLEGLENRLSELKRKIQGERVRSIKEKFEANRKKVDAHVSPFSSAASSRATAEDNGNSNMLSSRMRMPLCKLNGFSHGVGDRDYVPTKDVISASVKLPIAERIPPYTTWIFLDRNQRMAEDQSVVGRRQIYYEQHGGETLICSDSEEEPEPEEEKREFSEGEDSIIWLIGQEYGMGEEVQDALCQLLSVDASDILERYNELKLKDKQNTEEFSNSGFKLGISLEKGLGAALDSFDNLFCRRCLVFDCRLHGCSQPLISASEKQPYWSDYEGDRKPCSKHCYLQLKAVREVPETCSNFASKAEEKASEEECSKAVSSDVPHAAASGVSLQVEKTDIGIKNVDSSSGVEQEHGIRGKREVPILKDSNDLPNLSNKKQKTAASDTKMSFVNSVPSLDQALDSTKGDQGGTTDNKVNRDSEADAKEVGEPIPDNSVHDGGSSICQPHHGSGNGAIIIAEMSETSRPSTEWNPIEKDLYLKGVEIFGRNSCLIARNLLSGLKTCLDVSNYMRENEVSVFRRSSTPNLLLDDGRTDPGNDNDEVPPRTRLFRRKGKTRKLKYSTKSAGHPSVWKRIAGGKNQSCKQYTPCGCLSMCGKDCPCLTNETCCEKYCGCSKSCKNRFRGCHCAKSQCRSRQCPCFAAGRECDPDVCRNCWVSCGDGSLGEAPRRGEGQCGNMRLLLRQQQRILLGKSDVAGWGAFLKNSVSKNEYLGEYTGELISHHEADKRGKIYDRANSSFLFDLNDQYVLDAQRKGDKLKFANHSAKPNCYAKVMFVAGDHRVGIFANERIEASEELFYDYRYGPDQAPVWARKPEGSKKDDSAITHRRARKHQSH

[16] = molecular target: T5, AT4G02020.1 SWN (Arabidopsis thaliana); experiment: IP-MS rep 2
[17] = molecular target: T5, AT4G02020.1 SWN (Arabidopsis thaliana); experiment: X-link IP-MS

B1: FLAG-TRB2 (protein, not shown: small tags and cut ends)
chain: MGAPKQKWTPEEEAALKAGVLKHGTGKWRTILSDSEFSLILKSRSNVDLKDKWRNISVTALWGSRKKAKLALKRTPPGTKQDDNNTALTIVALTNDDERAKPTSPGGSGGGSPRTCASKRSITSLDKIIFEAITNLRELRGSDRTSIFLYIEENFKTPPNMKRHVAVRLKHLSSNGTLVKIKHKYRFSSNFIPAGARQKAPQLFLEGNNKKDPTKPEENGANSLTKFRVDGELYMIKGMTAQEAAEAAARAVAEAEFAITEAEQAAKEAERAEAEAEAAQIFAKAAMKALKFRIRNHPW
IP-MS count [1]: 0 | IP-MS count [2]: 0 | IP-MS count [3]: 4

B2: TRBIP2 (bait of the TRBIP2 IP-MS) (protein, not shown: small tags and cut ends)
chain: MATNACLESDSLLPPRKRLLAGFKNQNSRISNESPSPPFASSSSSTTTSNGSSASAVVHTHHLDHLLNDQTRSPEELAQASKATAALAVKVAKAARATANEKAIIASKAVAAAKNALELFASFPAAETVSCKEPRLIRAINNSPRVLTDCSGHRNKKQKTLTSTMNDGNDVAGVVDSDDGTRVNGKLLLCDNTLKEKTEEESSSLGKRRGRVKLPLSMCAYKDQENGITLEENNLSVSKSEGYNGGVAQVIERPSWKCQDLKSPECVKQNKVVRS
IP-MS count [4]: 2 | IP-MS count [5]: 1

B4: FLAG-TRB3, Q9M2X3 1-295 (protein, not shown: small tags and cut ends)
chain: MGAPKLKWTPEEETALKAGVLKHGTGKWRTILSDPVYSTILKSRSNVDLKDKWRNISVTALWGSRKKAKLALKRTPLSGSRQDDNATAITIVSLANGDVGGQQIDAPSPPAGSCEPPRPSTSVDKIILEAITSLKRPFGPDGKSILMYIEENFKMQPDMKRLVTSRLKYLTNVGTLVKKKHKYRISQNYMAEGEGQRSPQLLLEGNKENTPKPEENGVKNLTKSQVGGEVMIMGMTEKEAAAAAARAVAEAEFAMAEAEEAAREADKAEAEAEAAHIFAKAAMKAVKYRMHSQTR
IP-MS count [9]: 72 | IP-MS count [10]: 12 | IP-MS count [11]: 13

Further lines, results first:

IP-MS count [6]: 12 | IP-MS count [7]: 11 | IP-MS count [8]: 11
B3: FLAG-TRB3 (protein, not shown: small tags and cut ends)
chain: MGAPKLKWTPEEETALKAGVLKHGTGKWRTILSDPVYSTILKSRSNVDLKDKWRNISVTALWGSRKKAKLALKRTPLSGSRQDDNATAITIVSLANGDVGGQQIDAPSPPAGSCEPPRPSTSVDKIILEAITSLKRPFGPDGKSILMYIEENFKMQPDMKRLVTSRLKYLTNVGTLVKKKHKYRISQNYMAEGEGQRSPQLLLEGNKENTPKPEENGVKNLTKSQVGGEVMIMGMTEKEAAAAAARAVAEAEFAMAEAEEAAREADKAEAEAEAAHIFAKAAMKAVKYRMHSQTR

IP-MS count [12]: 0 | IP-MS count [9]: 77 | IP-MS count [13]: 1 | IP-MS count [10]: 35 | IP-MS count [14]: 0 | IP-MS count [11]: 34
B5: FLAG-TRB1, Q8VWK4 1-300 (protein, not shown: small tags and cut ends)
chain: MGAPKQKWTQEEESALKSGVIKHGPGKWRTILKDPEFSGVLYLRSNVDLKDKWRNMSVMANGWGSREKSRLAVKRTFSLPKQEENSLALTNSLQSDEENVDATSGLQVSSNPPPRRPNVRLDSLIMEAIATLKEPGGCNKTTIGAYIEDQYHAPPDFKRLLSTKLKYLTSCGKLVKVKRKYRIPNSTPLSSHRRKGLGVFGGKQRTSSLPSPKTDIDEVNFQTRSQIDTEIARMKSMNVHEAAAVAAQAVAEAEAAMAEAEEAAKEAEAAEAEAEAAQAFAEEASKTLKGRNICKMMIRA

IP-MS count [15]: 1 | IP-MS count [16]: 0 | IP-MS count [17]: 2
B6: FLAG-TRB1 (protein, not shown: small tags and cut ends)
chain: MGAPKQKWTQEEESALKSGVIKHGPGKWRTILKDPEFSGVLYLRSNVDLKDKWRNMSVMANGWGSREKSRLAVKRTFSLPKQEENSLALTNSLQSDEENVDATSGLQVSSNPPPRRPNVRLDSLIMEAIATLKEPGGCNKTTIGAYIEDQYHAPPDFKRLLSTKLKYLTSCGKLVKVKRKYRIPNSTPLSSHRRKGLGVFGGKQRTSSLPSPKTDIDEVNFQTRSQIDTEIARMKSMNVHEAAAVAAQAVAEAEAAMAEAEEAAKEAEAAEAEAEAAQAFAEEASKTLKGRNICKMMIRA
